Earlier results in PMC2649756.

Biological target: βI-spectrin 1898-2083 (Homo sapiens) (UniProt P11277)
Settings: cited from earlier work

αI-spectrin, sequence (P02549 whole entry): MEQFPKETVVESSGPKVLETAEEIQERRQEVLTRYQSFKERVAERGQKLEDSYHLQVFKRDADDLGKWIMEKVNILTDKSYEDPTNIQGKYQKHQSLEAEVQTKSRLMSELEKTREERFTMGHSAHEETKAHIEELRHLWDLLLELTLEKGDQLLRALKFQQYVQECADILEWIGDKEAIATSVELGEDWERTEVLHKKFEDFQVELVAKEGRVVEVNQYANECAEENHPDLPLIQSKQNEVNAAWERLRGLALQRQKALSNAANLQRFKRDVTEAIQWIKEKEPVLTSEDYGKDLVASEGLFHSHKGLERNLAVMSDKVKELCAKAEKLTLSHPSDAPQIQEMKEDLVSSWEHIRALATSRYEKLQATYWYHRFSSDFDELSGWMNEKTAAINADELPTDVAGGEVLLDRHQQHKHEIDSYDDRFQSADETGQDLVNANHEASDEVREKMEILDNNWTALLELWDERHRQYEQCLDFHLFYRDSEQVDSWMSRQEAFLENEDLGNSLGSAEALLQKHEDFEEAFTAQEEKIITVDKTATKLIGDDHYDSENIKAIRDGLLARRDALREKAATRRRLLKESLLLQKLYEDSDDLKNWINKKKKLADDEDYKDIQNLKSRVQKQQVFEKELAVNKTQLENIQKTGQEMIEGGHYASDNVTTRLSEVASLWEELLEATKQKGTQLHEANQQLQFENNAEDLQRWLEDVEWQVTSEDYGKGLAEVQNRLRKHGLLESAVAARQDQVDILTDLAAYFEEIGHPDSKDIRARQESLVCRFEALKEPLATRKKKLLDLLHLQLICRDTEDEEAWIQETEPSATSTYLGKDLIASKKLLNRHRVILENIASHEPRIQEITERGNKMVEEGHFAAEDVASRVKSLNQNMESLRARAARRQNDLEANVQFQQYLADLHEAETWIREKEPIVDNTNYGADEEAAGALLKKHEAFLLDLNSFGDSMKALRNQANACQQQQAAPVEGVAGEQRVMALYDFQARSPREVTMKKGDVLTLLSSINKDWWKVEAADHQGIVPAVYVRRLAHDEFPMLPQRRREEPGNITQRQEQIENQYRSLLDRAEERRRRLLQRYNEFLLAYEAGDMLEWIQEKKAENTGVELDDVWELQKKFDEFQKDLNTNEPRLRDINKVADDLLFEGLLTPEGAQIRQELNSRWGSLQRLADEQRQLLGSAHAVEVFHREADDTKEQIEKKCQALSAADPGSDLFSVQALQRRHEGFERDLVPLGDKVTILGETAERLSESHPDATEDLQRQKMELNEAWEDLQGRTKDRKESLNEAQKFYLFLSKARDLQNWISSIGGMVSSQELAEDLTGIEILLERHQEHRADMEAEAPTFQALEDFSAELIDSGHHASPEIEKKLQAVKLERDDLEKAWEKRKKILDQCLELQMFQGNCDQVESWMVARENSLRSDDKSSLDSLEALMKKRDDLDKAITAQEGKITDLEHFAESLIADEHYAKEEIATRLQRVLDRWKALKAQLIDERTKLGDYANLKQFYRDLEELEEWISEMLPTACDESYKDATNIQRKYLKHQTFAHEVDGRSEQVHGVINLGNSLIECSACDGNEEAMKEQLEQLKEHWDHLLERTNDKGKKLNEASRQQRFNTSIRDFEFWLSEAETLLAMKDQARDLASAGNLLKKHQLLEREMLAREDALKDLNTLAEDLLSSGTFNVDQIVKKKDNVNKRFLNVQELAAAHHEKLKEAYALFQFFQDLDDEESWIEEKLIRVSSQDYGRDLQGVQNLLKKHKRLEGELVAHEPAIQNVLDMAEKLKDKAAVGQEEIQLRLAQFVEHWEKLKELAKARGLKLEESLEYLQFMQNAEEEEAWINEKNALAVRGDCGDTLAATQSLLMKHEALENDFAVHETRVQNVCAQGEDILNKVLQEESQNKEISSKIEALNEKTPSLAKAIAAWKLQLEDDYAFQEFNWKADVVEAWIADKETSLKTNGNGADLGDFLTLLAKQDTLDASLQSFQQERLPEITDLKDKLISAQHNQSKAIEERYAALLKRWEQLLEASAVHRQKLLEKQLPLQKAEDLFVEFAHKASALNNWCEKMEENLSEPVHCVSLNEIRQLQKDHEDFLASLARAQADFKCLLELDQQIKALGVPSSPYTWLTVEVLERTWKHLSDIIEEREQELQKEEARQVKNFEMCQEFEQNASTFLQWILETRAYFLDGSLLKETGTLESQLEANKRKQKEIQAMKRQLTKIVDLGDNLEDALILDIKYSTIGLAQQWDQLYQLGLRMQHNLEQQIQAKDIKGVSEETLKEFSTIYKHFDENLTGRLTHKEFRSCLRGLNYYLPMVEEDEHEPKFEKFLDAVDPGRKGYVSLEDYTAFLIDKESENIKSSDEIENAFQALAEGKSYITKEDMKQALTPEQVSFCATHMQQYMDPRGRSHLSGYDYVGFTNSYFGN
βI-spectrin 1898-2083 (Homo sapiens), sequence (P11277 1898-2083): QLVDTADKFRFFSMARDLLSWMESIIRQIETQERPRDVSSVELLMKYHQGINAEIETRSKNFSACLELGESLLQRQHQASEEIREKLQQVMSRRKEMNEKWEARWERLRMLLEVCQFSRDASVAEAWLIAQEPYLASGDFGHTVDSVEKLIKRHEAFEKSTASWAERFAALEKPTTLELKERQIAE

**Q.** For αI-spectrin (from UniProt P02549), which Kd is on record?
**A.** Its Kd is 1000 nM.
